B1: GST-P1 (enzyme, human, UniProt P09211 1-210, looked up)
GST-P1 subunit: MPPYTVVYFPVRGRCAALRMLLADQGQSWKEEVVTVETWQEGSLKASCLYGQLPKFQDGDLTLYQSNTILRHLGRTLGLYGKDQQEAALVDMVNDGVEDLRCKYISLIYTNYEAGKDDYVKALPGQLKPFETLLSQNQGGKTFIVGDQISFADYNLLDLLLIHEVLAPGCLDAFPLLSAYVGRLSARPKLKAFLASPEYVNLPINGNGKQ
notes: recombinant; also called human recombinant GST-P1-1

Tests used:
[1] = biological target: T1, recombinant human B-cell lymphoma protein 2 alpha His-Tag (Bcl-2) (human, UniProt P10415 1-211, limits assumed); experiment: fluorescence displacement assay: emission of the His-Bcl-2-compound 5 sensor complex (200 nM) after adding 800 nM peptide
T1 construct: In the assay it was in complex with the Ni-NTA sensor compound 5; also called His-Bcl-2; not shown: His-tag

[2] = biological target: T2, mouse recombinant His-calmodulin, calcium-bound (mouse, UniProt P0DP26 1-149); experiment: SPR, His-CaM immobilised on CM5 chip, analyte pre-incubated with 0.3 mM CaCl2
T2 construct: also called His-CaM(Ca^2+); His-CaM(Ca^+2)

[3] = biological target: T1, recombinant human B-cell lymphoma …; experiment: fluorescence displacement assay: emission of the His-Bcl-2-compound 5 sensor complex (200 nM) after adding 800 nM protein

T1 sequence (P10415 1-211 limits assumed): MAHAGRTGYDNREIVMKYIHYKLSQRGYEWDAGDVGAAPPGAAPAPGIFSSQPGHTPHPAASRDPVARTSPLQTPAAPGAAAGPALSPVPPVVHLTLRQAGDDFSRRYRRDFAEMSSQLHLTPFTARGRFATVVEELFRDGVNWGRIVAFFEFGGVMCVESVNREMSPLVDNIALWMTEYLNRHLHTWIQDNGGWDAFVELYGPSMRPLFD

Row | Binder | binding result [1] | Kd [2] | binding result [3]
1 | KRRWKKNFIAVSAANRFKKISSSGAL (peptide, UniProt P07313 578-603, looked up, check before use) | no binding (tested: 800 nM) | 8.8 nM | –
2 | B1 | – | – | no binding (tested: 800 nM)

Source: US20210156867A1 (YEDA RESEARCH AND DEVELOPMENT, published 2021)
